Measured values published in patent publication US20240116985A1 (published 2024).
Starred links: 1 amine or outer side, 2 acyl side, 3 side chain; linkers in the order of their positions; H or OH if unused. Positions of bridges follow the written chain, without caps; N, C: chain ends. Non-standard residues stand in square brackets, D forms with d. Primed or numbered codes have the meaning given here. B5(20) = 2-amino-2-(pent-4-en-1-yl)hept-6-enoic acid = bis(4-pentenyl)glycine, stitching residue, C=CCCCC(CCCC=C)(N[*:1])C(=O)[*:2]; PyrS2 = (S)-3-amino-1-((pent-4-en-1-yloxy)carbonyl)pyrrolidine-3-carboxylic acid, C=CCCCOC(=O)N1CC[C@@](N[*:1])(C(=O)[*:2])C1; B5 = 2-amino-2-(pent-4-en-1-yl)hept-6-enoic acid, C=CCCCC(CCCC=C)(N[*:1])C(=O)[*:2]; Phe(2-CONH2) = NC(=O)c1ccccc1C[C@H](N)C(=O)O; Phe(2-Cl) = N[C@@H](Cc1ccccc1Cl)C(=O)O; Bta = N[C@@H](Cc1csc2ccccc12)C(=O)O; αAllylPro = C=CC[C@@]1(C(=O)O)CCCN1; S8 = C=CCCCCCC[C@](C)(N)C(=O)O; hSer = N[C@@H](CCO)C(=O)O

B1: I-513 (peptide)
peptide: Ac-[αAllylPro]DA[B5(20)]DEAAFN[S8][Phe(2-CONH2)][Bta]H-NH2
modifications: staple 1-4, 4-11
notes: Stapled peptide composition
B2: I-507 (peptide)
peptide: XDAXDEAAFQXFXT
modifications: not fully specified; Ac-PL3-Asp-Ala-B5-Asp-Glu-Ala-Ala-Phe-Gln-S8-Phe-BztA-Thr-NH2; stapled by olefin metathesis (PL3-B5 and B5-S8)
B3: I-508 (peptide)
peptide: Ac-[αAllylPro]DA[B5(20)]DEAAFQ[S8]F[Bta]T-NH2
modifications: staple 1-4, 4-11; also: later-eluting HPLC peak of staple isomers
B4: I-527 (peptide)
peptide: XDIXDEAAFQXFXQ
modifications: not fully specified; Ac-PL3-Asp-Ile-B5-Asp-Glu-Ala-Ala-Phe-Gln-S8-2OMeF-BztA-Gln-NH2; stapled by olefin metathesis (PL3-B5 and B5-S8)
B5: I-528 (peptide)
peptide: XDIXDEAAFQXFXQ
modifications: not fully specified; Ac-PL3-Asp-Ile-B5-Asp-Glu-Ala-Ala-Phe-Gln-S8-2OMeF-BztA-Gln-NH2; stapled by olefin metathesis (PL3-B5 and B5-S8)
B6: I-602 (peptide)
peptide: XDIXDEAAFQXFXQ
modifications: N-terminal 2PyPrpc cap; PL3 (pos 1), B5 (pos 4), S8 (pos 11) stapled (PL3-B5 and B5-S8); BztA (pos 13); C-terminal NH2
notes: Stapled peptide; also called 2PyPrpc-PL3-Asp-Ile-B5-Asp-Glu-Ala-Ala-Phe-Gln-S8-Phe-BztA-Gln-NH2
B7: I-618 (peptide)
peptide: XDLXDEAAFTXFXH
modifications: not fully specified; N-terminal Ac; PL3 (pos 1), B5 (pos 4), S8 (pos 11) stapled (PL3-B5 and B5-S8); BztA (pos 13); C-terminal NH2
notes: Stapled peptide; also called Ac-PL3-Asp-Leu-B5-Asp-Glu-Ala-Ala-Phe-Thr-S8-Phe-BztA-His-NH2
B8: I-601 (peptide)
peptide: XDIXDEAAFQXFXQ
modifications: N-terminal Bnc cap; PL3 (pos 1), B5 (pos 4), S8 (pos 11) stapled (PL3-B5 and B5-S8, olefin metathesis); BztA (pos 13); C-terminal NH2
notes: Stapled peptide; also called Bnc-PL3-Asp-Ile-B5-Asp-Glu-Ala-Ala-Phe-Gln-S8-Phe-BztA-Gln-NH2
B9: I-614 (peptide)
peptide: XDIXDRAAFQXFXQ
modifications: not fully specified; N-terminal Ac; PL3 (pos 1), B5 (pos 4), S8 (pos 11) stapled (PL3-B5 and B5-S8); BztA (pos 13); C-terminal NH2
notes: Stapled peptide; also called Ac-PL3-Asp-Ile-B5-Asp-Arg-Ala-Ala-Phe-Gln-S8-Phe-BztA-Gln-NH2
B10: I-603 (peptide)
peptide: Ac-[αAllylPro]DI[B5]DQAAFQ[S8]F[Bta]Q-NH2
modifications: staple 1-4, 4-11
notes: Stapled peptide; also called Ac-PL3-Asp-Ile-B5-Asp-Gln-Ala-Ala-Phe-Gln-S8-Phe-BztA-Gln-NH2
B11: I-613 (peptide)
peptide: XDIXDRAAFQXFXQ
modifications: not fully specified; N-terminal Ac; PL3 (pos 1), B5 (pos 4), S8 (pos 11) stapled (PL3-B5 and B5-S8); BztA (pos 13); C-terminal NH2
notes: as for B9
B12: I-617 (peptide)
peptide: XDLXDEAAFTXFXH
modifications: not fully specified; N-terminal Ac; PL3 (pos 1), B5 (pos 4), S8 (pos 11) stapled (PL3-B5 and B5-S8); BztA (pos 13); C-terminal NH2
notes: as for B7
B13: I-622 (peptide)
peptide: XDLXDEAAFTXFXQ
modifications: not fully specified; N-terminal Ac; PL3 (pos 1), B5 (pos 4), S8 (pos 11) stapled (PL3-B5 and B5-S8); BztA (pos 13); C-terminal NH2
notes: Stapled peptide; also called Ac-PL3-Asp-Leu-B5-Asp-Glu-Ala-Ala-Phe-Thr-S8-Phe-BztA-Gln-NH2
B14: I-623 (peptide)
peptide: XDLXDEAAFTXFXQ
modifications: not fully specified; N-terminal Ac; PL3 (pos 1), B5 (pos 4), S8 (pos 11) stapled (PL3-B5 and B5-S8); BztA (pos 13); C-terminal NH2
notes: as for B13
B15: I-1145 (peptide)
peptide: Ac-[αAllylPro]DF[B5]DDAAFL[PyrS2][Phe(2-Cl)][Bta]T-NH2
modifications: staple 1-4, 4-11
notes: Stapled (stitched) peptide composition; olefin isomer not specified
B16: I-1143 (peptide)
peptide: Ac-[αAllylPro]DF[B5]DDAAFS[PyrS2][Phe(2-Cl)][Bta][hSer]-NH2
modifications: staple 1-4, 4-11
notes: as for B15

Biological target: T1, full-length beta-Catenin (Uniprot ID P35222) (Homo sapiens (Human), UniProt P35222 1-781)
T1 construct: also called bCat; B-Catenin
T1 sequence: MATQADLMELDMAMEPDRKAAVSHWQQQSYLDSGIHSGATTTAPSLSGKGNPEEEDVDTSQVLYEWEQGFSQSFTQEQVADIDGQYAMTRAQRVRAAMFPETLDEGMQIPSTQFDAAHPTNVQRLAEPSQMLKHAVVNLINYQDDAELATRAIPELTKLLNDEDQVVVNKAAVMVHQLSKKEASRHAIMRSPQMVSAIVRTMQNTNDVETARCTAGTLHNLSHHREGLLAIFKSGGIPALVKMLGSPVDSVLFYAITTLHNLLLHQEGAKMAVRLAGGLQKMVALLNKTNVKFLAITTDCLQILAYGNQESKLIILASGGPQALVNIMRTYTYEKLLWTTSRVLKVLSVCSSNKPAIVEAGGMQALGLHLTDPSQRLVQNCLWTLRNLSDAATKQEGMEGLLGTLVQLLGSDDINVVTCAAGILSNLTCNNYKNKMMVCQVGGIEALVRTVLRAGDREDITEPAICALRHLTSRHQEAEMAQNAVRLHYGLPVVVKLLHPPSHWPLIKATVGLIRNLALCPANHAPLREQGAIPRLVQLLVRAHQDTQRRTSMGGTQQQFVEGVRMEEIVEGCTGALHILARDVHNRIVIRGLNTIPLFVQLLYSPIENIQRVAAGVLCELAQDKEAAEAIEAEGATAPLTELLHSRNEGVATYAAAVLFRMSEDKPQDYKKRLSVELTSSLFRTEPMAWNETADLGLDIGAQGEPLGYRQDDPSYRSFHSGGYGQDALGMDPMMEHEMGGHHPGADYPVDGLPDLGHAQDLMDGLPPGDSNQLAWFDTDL
Assay: FP competition: full-length beta-catenin 10 nM + 5FAM-TCF4(10-53) 10 nM
Protocol: The plate was incubated protected from light for 60 minutes at 20° C. prior to read. Reads were performed on a CLARIOstar plate reader (BMG Labtech) in duplicate, and data were fitted to a 1:1 binding model with hill slope using an in-house script. All provided concentrations are final concentrations.

Row | Binder | IC50 [nM]
1 | B1 | 143
2 | B2 | 192
3 | B3 | 73
4 | B4 | 98
5 | B5 | 63

Biological target: T2, full-length beta-Catenin (Uniprot ID P35222) (Homo sapiens (Human), UniProt P35222 1-781)
T2 construct: The assay text says full-length; also called bCat; B-Catenin
T2 sequence: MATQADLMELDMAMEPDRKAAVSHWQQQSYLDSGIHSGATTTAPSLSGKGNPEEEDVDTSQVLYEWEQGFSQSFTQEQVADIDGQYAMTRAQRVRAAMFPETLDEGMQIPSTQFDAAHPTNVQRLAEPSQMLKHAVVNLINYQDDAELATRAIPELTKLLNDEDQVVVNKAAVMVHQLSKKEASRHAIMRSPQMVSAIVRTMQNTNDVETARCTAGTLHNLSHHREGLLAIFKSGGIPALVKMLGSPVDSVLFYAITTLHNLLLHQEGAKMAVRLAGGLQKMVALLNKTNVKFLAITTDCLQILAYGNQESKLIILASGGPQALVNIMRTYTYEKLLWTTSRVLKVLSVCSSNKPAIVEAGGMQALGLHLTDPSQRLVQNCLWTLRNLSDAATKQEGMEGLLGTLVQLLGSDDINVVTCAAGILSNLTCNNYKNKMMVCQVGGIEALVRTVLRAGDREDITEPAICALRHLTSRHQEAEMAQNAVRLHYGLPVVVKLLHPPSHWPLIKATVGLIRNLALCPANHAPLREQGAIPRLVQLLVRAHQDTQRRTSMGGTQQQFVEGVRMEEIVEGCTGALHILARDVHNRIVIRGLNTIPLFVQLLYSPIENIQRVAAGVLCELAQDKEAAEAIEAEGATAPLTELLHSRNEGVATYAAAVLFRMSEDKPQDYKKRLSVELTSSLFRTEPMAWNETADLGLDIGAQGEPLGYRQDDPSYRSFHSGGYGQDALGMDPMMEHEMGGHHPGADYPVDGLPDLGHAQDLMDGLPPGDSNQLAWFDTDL
Assay: fluorescence polarization competition; full-length beta-catenin with 5FAM-TCF4(10-53) probe as competitor
How it was run: (§1)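 Data fitted to 1:1 binding model with hill slope from duplicate reads taken after 60 minutes at 20° C. in the dark.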

Row | Binder | IC50 [nM]
6 | B6 | 3150
7 | B7 | 135
8 | B8 | 419
9 | B9 | 1140
10 | B10 | 392
11 | B11 | 1630
12 | B12 | 253
13 | B13 | 230
14 | B14 | 103

Biological target: T3, full-length beta-Catenin (Uniprot ID P35222) (Homo sapiens (Human), UniProt P35222 2-781)
T3 construct: also called bCat; B-Catenin
T3 sequence: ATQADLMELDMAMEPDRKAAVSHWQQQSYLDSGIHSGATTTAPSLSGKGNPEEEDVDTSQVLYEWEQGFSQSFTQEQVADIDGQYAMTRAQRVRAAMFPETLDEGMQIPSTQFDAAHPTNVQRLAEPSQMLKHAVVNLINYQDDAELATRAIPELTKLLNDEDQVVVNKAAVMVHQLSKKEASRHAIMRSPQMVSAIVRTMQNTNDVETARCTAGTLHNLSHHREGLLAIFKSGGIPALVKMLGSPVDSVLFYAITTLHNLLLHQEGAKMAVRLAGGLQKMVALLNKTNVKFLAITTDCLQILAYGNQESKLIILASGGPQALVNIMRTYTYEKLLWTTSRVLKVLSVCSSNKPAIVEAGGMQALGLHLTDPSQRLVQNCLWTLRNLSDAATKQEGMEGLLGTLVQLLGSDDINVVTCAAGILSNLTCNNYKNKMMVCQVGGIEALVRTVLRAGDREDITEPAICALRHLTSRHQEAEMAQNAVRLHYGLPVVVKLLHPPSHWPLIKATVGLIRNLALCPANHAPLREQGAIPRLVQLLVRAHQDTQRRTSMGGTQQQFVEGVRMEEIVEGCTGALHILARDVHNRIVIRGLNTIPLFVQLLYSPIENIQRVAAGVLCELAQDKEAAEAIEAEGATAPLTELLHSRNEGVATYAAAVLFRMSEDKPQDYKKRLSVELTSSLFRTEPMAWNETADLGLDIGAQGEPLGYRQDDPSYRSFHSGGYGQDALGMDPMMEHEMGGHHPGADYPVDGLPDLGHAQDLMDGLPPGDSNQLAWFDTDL
Assay: fluorescence polarization competition vs 5FAM-TCF4(10-53) on full-length beta-catenin
How it was run: as §1

Row | Binder | IC50 [nM]
15 | B15 | 18
16 | B16 | 12

Biological target: T4, Bcat-Halo (UniProt P35222 1-781, HaloTag NanoBRET 618 Ligand bound in the assay)
T4 construct: Expressed by transfection in HEK293 cells; also called beta-catenin HaloTag NanoBRET construct; not shown: HaloTag
T4 sequence (looked up): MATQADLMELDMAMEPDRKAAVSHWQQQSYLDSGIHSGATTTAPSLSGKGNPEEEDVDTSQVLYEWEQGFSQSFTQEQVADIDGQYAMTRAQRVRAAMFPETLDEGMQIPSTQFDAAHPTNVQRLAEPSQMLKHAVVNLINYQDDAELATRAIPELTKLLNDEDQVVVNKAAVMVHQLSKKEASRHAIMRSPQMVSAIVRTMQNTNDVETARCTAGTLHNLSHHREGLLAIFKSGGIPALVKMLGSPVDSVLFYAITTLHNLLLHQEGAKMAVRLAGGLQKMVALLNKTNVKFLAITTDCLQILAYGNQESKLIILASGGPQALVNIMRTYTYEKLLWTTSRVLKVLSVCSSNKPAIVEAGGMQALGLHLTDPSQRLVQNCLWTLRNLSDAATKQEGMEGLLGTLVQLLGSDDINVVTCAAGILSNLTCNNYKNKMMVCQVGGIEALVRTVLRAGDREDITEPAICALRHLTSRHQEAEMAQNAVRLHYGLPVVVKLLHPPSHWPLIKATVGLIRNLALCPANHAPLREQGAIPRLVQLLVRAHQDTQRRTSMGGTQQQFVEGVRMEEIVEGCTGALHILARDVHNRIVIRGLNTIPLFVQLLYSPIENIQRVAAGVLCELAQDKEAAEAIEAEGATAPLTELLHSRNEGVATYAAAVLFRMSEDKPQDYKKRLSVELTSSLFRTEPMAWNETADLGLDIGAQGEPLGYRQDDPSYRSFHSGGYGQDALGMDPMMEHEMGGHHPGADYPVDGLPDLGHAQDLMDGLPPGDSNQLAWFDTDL
Assay: NanoBRET Abs IC50 in HEK293 cells; competitor TCF4-Luc on Bcat-Halo

Row | Binder | IC50 [nM]
17 | B15 | 30600
18 | B16 | 33100
